Where a chain is given by its changes, count along the chain named.
How the values were obtained:
[1] = biological target: T1, H1477 (H80-EGFRvIII) cells (Homo sapiens, UniProt P00533, DELINS30-297G); assay: FACS staining of H1477 (H80-EGFRvIII) cells; type: cell-based
T1 construct: host or cells: H1477 (H80 human glioblastoma line transfected with EGFRvIII)
Experimental: (§1) The specificity of the purified antibodies was ascertained by performing FACS analysis on a panel of cell lines. H80, a human glioblastoma line, and H1477 (H80-EGFRvIII) that expresses high levels of EGFRvIII, A431, a human epidemoid carcinoma line, and A549, a human lung carcinoma cell line were used as the cell lines. All cell lines were from Dr. Bigner except A431 and A549, which were from ATCC (Rockville, Md., U.S.A.). Cells were incubated on ice with 10 μg/ml of the respective antibody for 30 min., washed in FACS buffer and subsequently incubated with PE-conjugated goat anti-human IgG from Jackson ImmunoResearch (West Grove, Pa., U.S.A.). In FIGS. 9A-9L and 10A-10D, the darkened histogram indicates cells stained with an irrelevant IgG, the outlined, or white histogram, represents the staining of the relevant antibodies.

[2] = biological target: T2, EGFrVIII peptide sequence (residues 1-20) (Homo sapiens, UniProt P00533, DELINS30-297G); assay: Epitope mapping by SPOTs peptide array and Alanine scanning; type: binding; conditions: SEQ ID 94/98 = EEKKGNYVVT; 95 = LEEKKGNYVVTD; 96 = YVVTDH; 97 = YVVTD; 99 = GNYVVT
T2 construct: purchased Sigma-Genosys (custom SPOTs array)
From the text: The approach that was used was a custom SPOTs peptide array (Sigma Genosys) to study the molecular interaction of the human anti-EGFrVIII antibodies with their peptide epitope. SPOTs technology is based on the solid-phase synthesis of peptides in a format suitable for the systematic analysis of antibody epitopes. Synthesis of custom arrayed oligopeptides is commerically available from Sigma-Genosys. A peptide array of overlapping oligopeptides derived from the amino-acid sequence of the EGFr VIII variant was ordered from Sigma-Genosys.
A series of nine 12-mer peptides were synthesized as spots on polypropylene membrane sheets. The peptide array spanned residues 1-20 of the EGFrVIII sequence, representing the deletion of amino acids 6-273 in the extracellular domain of wtEGFr, and the generation of a glycine (G) residue at the junction point. Each consecutive peptide was offset by 1 residue from the previous one, yielding a nested, overlapping library of arrayed oligopeptides. The membrane carrying the 9 peptides was reacted with 9 different anti EGFrVIII antibodies (1 μg/ml). The binding of the mAbs to the membrane-bound peptides was assessed by an enzyme-linked immunosorbent assay using HRP-conjugated secondary antibody followed by enhanced chemiluminescence (ECL).
In addition, functional epitopes were mapped by combinatorial Alanine scanning. In this process, a combinatorial Alanine-scanning strategy was used to identify amino acids in the EGFrVIII peptide necessary for interaction with anti-EGFRvIII mAbs. To accomplish this, a second set of SPOTs arrays was ordered for Alanine scanning. A panel of variants peptides with alanine substitutions in each of the 12 residues was scanned as above. Spot #1, the unmutated sequence, is a positive control for antibody binding.

[3] = biological target: T3, A549 cells (wild type EGFR) (Homo sapiens, UniProt P00533); assay: FACS staining of A549 cells; type: cell-based
T3 construct: host or cells: A549
Experimental: as §1

Pep-3 (EGFRvIII epitope) = biological target: T4, Pep-3 (EGFRvIII epitope) (Homo sapiens, UniProt P00533, DELINS30-297G); assay: Biacore (surface plasmon resonance) binding kinetics to Pep-3; conditions: for Ka / dissociation rate constant (kd, koff): parentheses 95% confidence interval
T4 construct: purchased Anatech, Inc. (San Jose, Calif.); host or cells: custom synthesis
Experimental: All antigen and mAb samples for Biacore and KinExA analysis were prepared in vacuum-degassed HBS-P buffer (0.01 M HEPES, 0.15 M NaCl, 0.005% surfactant P-20, Biacore Inc., Uppsala, Sweden) containing 100 μg/mL BSA. […] Research grade CM5 biosensor chips were purchased from Biacore, Inc.
Standard EDC/NHS and carbohydrate coupling was used to covalently immobilize mAbs to a CM5 sensor chip. To minimize mass transport and crowding mAbs were immobilized at levels that gave a maximum antigen binding response (Rmax) of no more than 50-100 RU. A reference flow cell on each chip was activated and blocked with no mAb immobilization to serve as a control.
All Biacore kinetic experiments were conducted at 23° C. […] Antigen samples were randomly injected over the biosensor surface in triplicate at 100 μL/min. Several buffer blanks were injected intermittently over the course of an experiment for double referencing. Each pep-3 concentration and blank were injected for 90 seconds. Dissociation was followed for 13 to 180 minutes.
All Biacore sensorgrams were processed using Scrubber software (Version 1.1f, BioLogic Software, Australia). Sensorgrams were first zeroed on the y-axis and then x-aligned at the beginning of the injection. Bulk refractive index changes were removed by subtracting the reference flow cell responses. The average response of all blank injections was subtracted from all analyte and blank sensorgrams to remove systematic artifacts between the experimental and reference flow cells. CLAMP biosensor data analysis software (Version 3.40, BioLogic Software, Australia) was used to determine ka and kd from the processed data sets. Data from all flow cells were globally fit to a 1:1 bimolecular binding model that included a mass transport term. […] The KD was calculated from the quotient kd/ka.
Two CM5 sensor chips were used in total to immobilize both mAbs. […] Biacore 2000 optical biosensors were used for all studies.
Next, pep-3 was flowed across the mAb immobilized biosensor surfaces. The starting concentration of pep-3 was 1.25 μM, which was followed with eight two-fold serial dilutions in randomized triplicate injections. Blank injections were run every sixth sample throughout the injection series for double referencing purposes.
Finally, the biosensor data was processed with Scrubber and the data was fit to curves utilizing Clamp with a 1:1 interaction model with a term included for mass transport. […]

[4] = biological target: T5, A431 cells (wild type EGFR) (Homo sapiens, UniProt P00533); assay: FACS staining of A431 cells; type: cell-based
T5 construct: host or cells: A431
Experimental: as §1

[5] = biological target: T6, EGFRvIII rabbit Fc fusion protein (Homo sapiens, UniProt P00533, DELINS30-297G); assay: Western blot, purified EGFRvIII rabbit Fc fusion protein, reducing / non-reducing; type: binding; conditions: native and reduced
T6 construct: fragment encoding the extracellular domain of EGFRvIII was generated; made in house; host or cells: 293F cells
Experimental: (§2) Specifcially, a subset of the antibodies were tested for their binding of to lysates of tumor cell lines in Western plates of polyacrylamide gel electrophoresis under either non-reducing or reducing conditions. Purifed recombinant protein is also included. […] Sample identifications: • EGFRvIII—the rabbit Fc fusion protein • H1477—H80 human tumor cell line transfected with EGFRvIII expression contruct. These cells express both EGFR and EGFRvIII. • EGFR—purified wild-type EGFR protein • A431—human tumor cell line expressing only wild-type EGFR • A549—human tumor cell line expressing only wild-type EGFR • H80—human tumor cell line expressing only wild-type EGFR

[6] = biological target: T7, A431 lysate (wild-type EGFR) (Homo sapiens, UniProt P00533); assay: Western blot, A431 lysate; type: binding
T7 construct: host or cells: A431
Experimental: as §2

[7] = biological target: purified wild-type EGFR protein (Homo sapiens, UniProt P00533); assay: Western blot, purified wild-type EGFR protein; type: binding
Experimental: as §2

[8] = biological target: T8, EGFRvIII receptor on NR6 M cells (Homo sapiens, UniProt P00533, DELINS30-297G); assay: Internalization assay of B-cell culture supernatants (FMAT, glutathione); type: cell-based
T8 construct: expressed in transfected cells; host or cells: NR6 murine fibroblasts (NR6 M)
Experimental: The top 60 native binding B cell culture supernatants were further assayed for their ability to internalize the receptor. NR6 M cells were seeded at 8000 cells/well into 96 well FMAT plates and incubated overnight. Media was removed and 10-15 μl B-Cell culture supernatant in a total volume of 30 μl media, in duplicate was added. Next, 15 μl of secondary antibody (SS Alexa 647 anti-human IgG Fab at 1.5 μg/ml final concentration) was added and the mixture was incubated on ice for 1 hr. An irrelevant B-Cell Culture supernatant was used to see the effect of the culture media. Human anti-EGFRvIII mAb 13.2.1 was used as a positive control starting at 1 μg/ml (final concentration) and negative control was PK 16.3.1 (human anti-KLH IgG2 antibody) at the same concentration. After incubation, the cells were washed with cold PBS, 50 μl media was added to all of the wells, one of the duplicates were incubated at 37° C. for 30 mins while the other duplicate remained on ice. After the incubations media was removed, 100 ul of cold 50 mM glutathione was added to the set incubated at 37° C. and 100 μl of cold media added to the other set, both sets were then left on ice for 1 hr. The cells were then washed with 100 μl cold PBS and then fixed with 1% paraformaldehyde and read in FMAT. The results were expressed as % intermalized, calculated as total fluorescence in the presence of glutathione/total fluorescence in the absence of glutathione X 100.

B1: 139: XenoMax derived human anti-EGFRvIII IgG1, from well 182A5 (antibody, V domains shown)
VH: EVQVLESGGGLVQPGGSLRLSCAASGFTFSSYAMSWVRQAPGKGLEWVSAISGSGGSTNYADSVKGRFTISRDNSKNTLYLQMNSLRAEDTAVYYCAGSSGWSEYWGQGTLVTVSS
VL: DIQMTQSPSSLSASVGDRVTITCRASQGIRNNLAWYQQKPGKAPKRLIYAASNLQSGVPSRFTGSGSGTEFTLIVSSLQPEDFATYYCLQHHSYPLTSGGGTKVEIK
Binding to the EGFRvIII protein on the transfected cell lines ([1]; 10 μg/ml): bind | Selectivity for EGFRvIII expressing cells (H1477) as compared to ABX-EGF ([1]; FIGS. 9A-9L, 10A-10D): superior selectivity | Epitope mapped by SPOTs [2]: (SEQ ID NO: 95) | Binding / staining of A549 cells in FACS [3]: stained | kd (Pep-3 (EGFRvIII epitope); curve fitting): 2.981*10^−3 | Ka (Pep-3 (EGFRvIII epitope)): 10300 M⁻¹ s⁻¹ | dissociation rate constant (kd, koff) (Pep-3 (EGFRvIII epitope)): 0.00298 s⁻¹ | Binding / staining of A431 cells in FACS [4]: stained

B2: 250: XenoMax derived human anti-EGFRvIII antibody, from well 138D2 (antibody, V domains shown)
VH: B1 VH with V2G, V4L, L11W, G16E, M83V, A88V
VL: DIQMTQSPSSLSASVGDSVTITCRTSQGIRKNLGWYQQKPGKAPKRLIYAASSLQSGVPSRFSGSGSGTEFTLTISRLQPEDFATYYCLQHHSYPLTFGGGTRVEIR
Epitope mapped by SPOTs [2]: (SEQ ID NO: 95)

B3: 095: XenoMax derived human anti-EGFRvIII antibody (antibody, V domains shown)
VH: QVQLQESGPFLVKPSQTLSLTCTVSGGSISSGGYYWSWIRQHPGKGLEWIGFIYYRGNTYYNPSLKSRVTISVDTSKNQFSLKLSSVTAADTAVYYCARDGYCSRTGCYGGWFDPWGQGTLVTVSP
VL: DIVMTQTPLSSPVTLGQPASISCRSSQSLIHTDGNIYLSWLQQRPGQPPRLLIYKISNRFSGVPDRFSGSGAGTDFTLKISRVEAEDVGVYYCMQGTQFPITFGQGTRLEIK
Epitope mapped by SPOTs [2]: (SEQ ID NO: 96) | ka (Pep-3 (EGFRvIII epitope); curve fitting): 1.491*10^5 | kd (Pep-3 (EGFRvIII epitope); curve fitting): 9.927*10^−3 | Ka (Pep-3 (EGFRvIII epitope)): 149000 M⁻¹ s⁻¹ | dissociation rate constant (kd, koff) (Pep-3 (EGFRvIII epitope)): 0.0099 s⁻¹

B4: 211: XenoMax derived human anti-EGFRvIII antibody, from well 190D7 (antibody, V domains shown)
VH: QVQLVESGGGVVQPGRSLRLSCVASGFTLSSYGMHWVRQAPGKGLEWVAVTSYDGSKKDYADSAKGRFTISRDNSKNTLYLQMNSLRAEDTAVYYCVSEGYCSSSSCYKYYYYGMDVWGQGTTVTVSS
VL: DIVMTQSPLSLPVTPGEPASISCRSSQSLLYRNGNNYLDWYLQRPGQSPQLLIYLGSNRASGVPDRFSGSGSGTDFTLKISRVEAEDVGVYYCMQALQTPRTFGQGTKVEIK
Binding to purified EGFRvIII in Western blots [5]: binds to both native and reduced | Epitope mapped by SPOTs [2]: (SEQ ID NO: 97) | Binding in Western blot of A431 lysate, reduced sample [6]: no signal | Binding in Western blot of lysate of A431 cells [6]: cross reacted | Binding in Western blot of A431 lysate, non-reduced sample ([6]; band of the size of wild-type EGFR): binds strongly | Binding to purified wildtype EGFr in Western blots [7]: cross reacted

B5: 125 D10: B-cell culture supernatant well (antibody, V domains shown)
VH: QVQLQQSGPGLVKPSQTLSLTCAISGDSVSSNNAAWNWIRQSPARGLEWLGRTYYRSKWYNDYVVSVKSRITINPDTSKNQFSLQLNSVTPEDTAVYYCVRATAFDYWGQGTLVTVSS
VL: AIVLTQTPLSSPVTLGQPASISCRSSQSLVHRDGNTYLSWLQQRPGQPPRLLIYKISNRFSGVPDRFSGSGAGTDFTLKISRVEPDDVGVYYCMHTTQLPWTFGQGTKVEIK
With glutathione FL1 × count ([8]; 37° C. for 30 mins, then 50 mM glutathione): 1236 | % internalized, (glut+/glut−) × 100 ([8]; NR6 M cells, 37° C. 30 mins): 52.8% | No glutathione FL1 × count ([8]; set kept on ice, no glutathione): 2342

Reference: patent US20050059087A1, “Antibodies directed to the deletion mutants of epidermal growth factor receptor and uses thereof” (priority 2003, published 2005)
